# According to the supplement of paper PMC12764529:
# ± gives the half width of the 95% confidence interval.
# What was measured:
# [1] = folding stability dG unfold from chymotrypsin proteolysis; higher = more stable
# Summary of the method: (§1)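 Designed mini-proteins (under 80 residues, no cysteine) in a PA-tagged cDNA display construct were digested with trypsin and chymotrypsin. Each protease was used at 11 concentrations (threefold dilutions) plus a no-protease condition, followed by sequencing. K50 was inferred by Bayesian fitting of sequencing counts, and unfolding free energy was derived against a sequence-predicted unfolded-state K50 and a shared folded-state K50, per protease or combined. Only designs with AlphaFold2 dimer inter-PAE above 15 were kept.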
# [2] = folding stability dG unfold (combined trypsin and chymotrypsin); higher = more stable
# Summary of the method: as §1
# [3] = folding stability dG unfold from trypsin proteolysis; higher = more stable
# Summary of the method: as §1
Sequence,folding stability dG unfold [1],folding stability dG unfold [2],folding stability dG unfold [3]
SAGGNSMTILFIFPENGWIIRITIKFPDGNGKIDDIDIEREPVPNGQVKYTIRMPDGMEISVEIIPLDSAGG [r13_515_TrROS],5.57 ± 0.15 kcal/mol,5.52 ± 0.33 kcal/mol,3.99 ± 0.1 kcal/mol
SAGGSAGGIRINPENGQIYFPLENGKAKSVPFKPGQEREIPNGWRITIKPDPPGPWEIEVKPLDSAGGSAGG [r6_296_TrROS],-0.578 ± 0.61 kcal/mol,-0.499 ± 0.22 kcal/mol,-0.509 ± 0.42 kcal/mol
SAGGSAGGSAGAEELAKKLKELGFEVKVEKNEDGSLTLTVKFKPKPKPKKVVTKDGKEVKSAGGSAGGSAGG [r17_503_TrROS_Hall],1.9 ± 0.11 kcal/mol,1.61 ± 0.26 kcal/mol,0.579 ± 0.076 kcal/mol
SAGGSMTISYDPSTGTVTITDPTVPLNTPRSITITFPGGETFTATLTPLPDNSATATYTVVPTAGASAGGSA [r2_89_JUSTAS],1.09 ± 0.1 kcal/mol,1.23 ± 0.16 kcal/mol,1.26 ± 0.036 kcal/mol
SAGGYKYKREKYRDPENGQPRERYKREPPPPPPPSISININAPPEMADKIADILQDLLPNMPVGINGSAGGS [r8_437_TrROS],3.04 ± 0.23 kcal/mol,2.84 ± 0.21 kcal/mol,2.45 ± 0.088 kcal/mol
SAGGSAMTYTITLKTPGSQSLELSLDEKLKLLSQTIDPNTGVTTLTLEGDPEEAKKLEQEIKEKLASAGGSA [r15_662_JUSTAS],1.66 ± 0.11 kcal/mol,1.56 ± 0.17 kcal/mol,1.56 ± 0.059 kcal/mol
SAGGSAMTAEEVEEKVREAFAALGVEAEVEVRESPEGGLEVLVVTGEDADLEEVKAALEELFGTDISAGGSA [r15_807_TrMRF],2.5 ± 0.064 kcal/mol,2.48 ± 0.078 kcal/mol,2.51 ± 0.12 kcal/mol
SAGGSAGGSAGGIIIPPGAKIVSIEKEGDFVKIKVYIPGSKKIETFKFPKGVPIIFEPEASAGGSAGGSAGG [r11_774_TrMRF],3.24 ± 0.075 kcal/mol,3.41 ± 0.15 kcal/mol,3.51 ± 0.28 kcal/mol
SAGGSAGGSAGGKKVYKVPSLEEALELAKKNKGKTVEIEVDGKKYKFNKNGKIVEIEPVKSAGGSAGGSAGG [r7_532_TrROS_Hall],2.38 ± 0.075 kcal/mol,2.14 ± 0.12 kcal/mol,1.36 ± 0.084 kcal/mol
SKFDPDDPGQPVRFTVMIPVPEDAMKNGDLEEVRDKVEEAADMFRPHGMEVKDIEVPPEQGWVMVKFEMPSA [r9_75_TrROS],-0.222 ± 0.43 kcal/mol,-0.0605 ± 0.65 kcal/mol,-0.824 ± 0.34 kcal/mol
SAKLPEGAVVVIEDIEEKEVNGKKYKTIKISVYDKKNKGKLIAETEIVVENGKIVEKKVKVKKVSKEELSAG [r14_651_TrROS_Hall],2.05 ± 0.14 kcal/mol,1.61 ± 0.14 kcal/mol,0.887 ± 0.027 kcal/mol
SAGGSPEEIANEVKEKILKELPPGVKVEVSVEVTPEGATVTVKVPEGKEYTVKVEGDKIVEIKLLKKSAGGS [r8_287_JUSTAS],1.92 ± 0.057 kcal/mol,1.51 ± 0.28 kcal/mol,0.921 ± 0.081 kcal/mol
SAGGGQTIEIKFPVPNENYRVYLMVYDPDKPISVEPQRFDPPDGEVTDKIKLPPDVKIGFMAFPPEDMSAGG [r13_977_TrROS],0.966 ± 0.13 kcal/mol,0.823 ± 0.048 kcal/mol,0.631 ± 0.033 kcal/mol
SAGGSAGGKAKIKKIEVELNEDGTLKVTAYDEETNEKITLEVKLPKPKPVYFDEEKLKEELEKKSAGGSAGG [r6_627_TrROS_Hall],0.963 ± 0.14 kcal/mol,0.629 ± 0.19 kcal/mol,-0.313 ± 0.19 kcal/mol
SAGGVEREPTEEDLLVATAEFLIEVRDPDSDYPLVEPVPITLPFTSLEDLLEELRRLKAEVEEALASSAGGS [r16_624_TrMRF],1.63 ± 0.073 kcal/mol,1.7 ± 0.14 kcal/mol,1.88 ± 0.092 kcal/mol
SAGGSAGGSAGGTKTIPFPIEEIEVEHNPDNNYYHVTIRFPDNGKPITFMFPPGDTITISAGGSAGGSAGGS [r10_819_TrROS],0.836 ± 0.15 kcal/mol,0.868 ± 0.12 kcal/mol,0.812 ± 0.025 kcal/mol
SAGKPGKTIKVTVPIPDSVKNAKIIVEYPNGKSKTITVPAGKNVTITFKVPGSSSVKVRVVLDDGSVIGSAG [r5_664_TrMRF],2.45 ± 0.046 kcal/mol,2.69 ± 0.054 kcal/mol,2.9 ± 0.075 kcal/mol
SAGGSAGGSASSLEESLRAELPEGKPARIEVKVELEKTPNGKLKVKEVKVTVTLPNGPVVGSAGGSAGGSAG [r3_247_JUSTAS],1.52 ± 0.072 kcal/mol,1.24 ± 0.11 kcal/mol,0.572 ± 0.077 kcal/mol
